Experimental data from PMC9496550.

Target: full length human kynurenine 3-monooxygenase fused to the C-terminal fragment of CFP (flKMO-CC) (human) (UniProt O15229)
Experiment: split reporter (BiFC, NanoBiT); BiFC in live HEK293T cells 48 h after co-transfection, 37 °C, 5% CO2; CC + VN (KMO with HTT) or VN + VC (HTT with HTT) complementation; ScanR screening station (mean green intensity normalised by co-transfected RFP) or confocal microscopy

Sequence of UniProt O15229 (O15229 whole entry, the tested form may be a part): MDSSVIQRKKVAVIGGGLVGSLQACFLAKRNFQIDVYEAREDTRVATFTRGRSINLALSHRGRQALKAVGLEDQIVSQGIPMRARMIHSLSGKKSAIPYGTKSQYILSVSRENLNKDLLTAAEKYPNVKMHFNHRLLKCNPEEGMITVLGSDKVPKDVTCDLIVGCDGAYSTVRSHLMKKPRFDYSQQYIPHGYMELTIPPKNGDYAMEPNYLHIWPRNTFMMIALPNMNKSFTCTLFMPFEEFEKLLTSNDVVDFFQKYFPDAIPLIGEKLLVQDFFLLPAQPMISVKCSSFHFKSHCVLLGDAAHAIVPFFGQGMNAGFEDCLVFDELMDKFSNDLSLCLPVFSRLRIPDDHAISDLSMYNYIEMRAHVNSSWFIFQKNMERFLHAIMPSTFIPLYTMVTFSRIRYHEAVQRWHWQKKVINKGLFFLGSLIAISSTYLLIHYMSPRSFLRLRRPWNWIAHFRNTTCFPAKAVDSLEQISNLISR

## HTT exon 1 fragment with 97 glutamines fused to the N-terminal half of Venus (HTT97Q-VN) (domain or fragment)
  reduction of the BiFC signal against flKMO-19Q: 50%
